# Non-standard residues stand in square brackets, D forms with d. Groups on a side chain read outwards from the residue. No end group written: not given here. *: point of attachment. 2OEGgEgE‑C18 diacid = O=C(O)CCCCCCCCCCCCCCCCC(=O)N[C@@H](CCC(=O)N[C@@H](CCC(=O)NCCOCCOCC(=O)NCCOCCOCC(=O)*)C(=O)O)C(=O)O; C20 diacid = O=C(O)CCCCCCCCCCCCCCCCCCC(=O)*; C18 diacid = O=C(O)CCCCCCCCCCCCCCCCC(=O)*; C17 diacid = O=C(O)CCCCCCCCCCCCCCCC(=O)*; NMeY = CN[C@@H](Cc1ccc(O)cc1)C(=O)O; Aib = CC(C)(N)C(=O)O
# Assays:
# [1] = target: T1, full-length human GIPR with an N-terminal FLAG tag (human, UniProt P48546 22-466); assay: cell-based or functional assay
# T1 sequence (looked up): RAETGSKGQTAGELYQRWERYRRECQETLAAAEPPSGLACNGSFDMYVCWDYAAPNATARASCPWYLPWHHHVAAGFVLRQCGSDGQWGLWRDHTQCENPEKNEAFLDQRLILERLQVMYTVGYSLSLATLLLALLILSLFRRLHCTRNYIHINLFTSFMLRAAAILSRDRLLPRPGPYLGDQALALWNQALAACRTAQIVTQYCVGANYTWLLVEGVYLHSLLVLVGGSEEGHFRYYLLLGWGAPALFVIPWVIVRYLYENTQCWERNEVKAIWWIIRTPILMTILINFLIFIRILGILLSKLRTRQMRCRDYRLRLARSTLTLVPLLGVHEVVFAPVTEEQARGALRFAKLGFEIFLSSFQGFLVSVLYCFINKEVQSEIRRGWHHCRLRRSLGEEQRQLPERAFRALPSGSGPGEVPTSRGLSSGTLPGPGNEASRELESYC
# [2] = target: full-length human GLP-1R with an N-terminal FLAG tag (human, UniProt P43220 24-463); assay: cell-based or functional assay
Binder,"Human GIPR cAMP EC50, HEK293T [1]","Human GLP1R cAMP EC50, HEK293T [2]"
[NMeY][Aib]EGTFISDYSI[Aib]LDR[Aib]K([2OEGgEgE-C18 diacid])Q[Aib]NFVNWLLAQRG-OH [Compound No. 74],0.0005 nM,468 nM
[NMeY][Aib]EGTFISDYSI[Aib]LDR[Aib]AQ[Aib]NFVNWLLAQK([2OEGgEgE-C20 diacid])PSSGAPPPS-NH2 [Compound No. 69],0.0008 nM,102 nM
[NMeY][Aib]EGTFISDYSIALDR[Aib]AQ[Aib]NFVNWLLAK(2OEGgEgE‑C18 diacid)SPSSGAPPPS-NH2 [Compound No. 59],0.0005 nM,> 1000 nM
[NMeY][Aib]EGTFISDYSI[Aib]LDR[Aib]AQ[Aib]K([2OEGgEgE-C18 diacid])FVNWLLAQKG-OH [Compound No. 66],0.0008 nM,32.4 nM
[NMeY][Aib]EGTFISDYSI[Aib]LDR[Aib]AQ[Aib]DFVNWLLAK(2OEGgEgE‑C18 diacid)RG-OH (N-terminus assumed; SMILES CC[C@H](C)[C@H](NC(=O)[C@H](Cc1ccccc1)NC(=O)[C@@H](NC(=O)CNC(=O)[C@H](CCC(=O)O)NC(=O)C(C)(C)NC(=O)[C@H](Cc1ccc(O)cc1)NC)[C@@H](C)O)C(=O)N[C@@H](CO)C(=O)N[C@@H](CC(=O)O)C(=O)N[C@@H](Cc1ccc(O)cc1)C(=O)N[C@@H](CO)C(=O)N[C@H](C(=O)NC(C)(C)C(=O)N[C@@H](CC(C)C)C(=O)N[C@@H](CC(=O)O)C(=O)N[C@@H](CCCNC(=N)N)C(=O)NC(C)(C)C(=O)N[C@@H](C)C(=O)N[C@@H](CCC(N)=O)C(=O)NC(C)(C)C(=O)N[C@@H](CC(=O)O)C(=O)N[C@@H](Cc1ccccc1)C(=O)N[C@H](C(=O)N[C@@H](CC(N)=O)C(=O)N[C@@H](Cc1c[nH]c2ccccc12)C(=O)N[C@@H](CC(C)C)C(=O)N[C@@H](CC(C)C)C(=O)N[C@@H](C)C(=O)N[C@@H](CCCCNC(=O)COCCOCCNC(=O)COCCOCCNC(=O)CC[C@H](NC(=O)CC[C@H](NC(=O)CCCCCCCCCCCCCCCCC(=O)O)C(=O)O)C(=O)O)C(=O)N[C@@H](CCCNC(=N)N)C(=O)NCC(=O)O)C(C)C)[C@@H](C)CC) [Compound No. 62],0.0004 nM,> 1000 nM
[NMeY][Aib]EGTFISDYSIALDR[Aib]AQ[Aib]K([2OEGgEgE-C18 diacid])FVNWLLAQSPG-OH [Compound No. 86],0.0003 nM,58.9 nM
[NMeY][Aib]EGTFISDYSIAK([2OEGgEgE-C17 diacid])DR[Aib]AQ[Aib]NFVNWLLAQR-OH [Compound No. 7],0.0004 nM,589 nM
[NMeY][Aib]EGTFISDYSI[Aib]LDR[Aib]AQ[Aib]K([2OEGgEgE-C18 diacid])FVNWLLAQRPSSGAPPPS-NH2 [Compound No. 89],0.0004 nM,42.7 nM
[NMeY][Aib]EGTFISDYSIAKDR[Aib]AQ[Aib]NFVNWLLAQK-NH2 (not fully specified (residue 14)) [Compound No. 6],0.0004 nM,83.2 nM
[NMeY][Aib]EGTFISDYSIAK([G4gE-C18 diacid])DR[Aib]AQ[Aib]DFVNWLLAQKG-OH [Compound No. 80],0.0003 nM,115 nM
[NMeY][Aib]EGTFISDYSI[Aib]LDR[Aib]K([2OEGgEgE-C18 diacid])Q[Aib]DFVNWLLAQRG-OH [Compound No. 73],0.0003 nM,363 nM
"YXEGTFISDYSIAXDSXAQXDFVNWLLAQSG (N-methyl Tyr 1; Aib at 2,17,20; Lys(G5-C18 diacid) at 14; C-terminal OH) [Compound No. 60]",0.0003 nM,100 nM
"YXEGTFISDYSIAXDKXAQXDFVNWLLAQKG (N-methyl Tyr 1; Aib at 2,17,20; Lys(G5-C18 diacid) at 14; C-terminal OH) [Compound No. 76]",0.0006 nM,28.8 nM
"YXEGTFISDYSIALDSXAQXDFVNWLLAQKG (N-methyl Tyr 1; Aib at 2,20; Lys(G5-C18 diacid) at 17; C-terminal OH) [Compound No. 78]",0.0003 nM,26.9 nM
"YXEGTFISDYSIXLDSXAQXDFVNWLLAQRG (N-methyl Tyr 1; Aib at 2,13,20; Lys(G6-C18 diacid) at 17; C-terminal OH) [Compound No. 64]",0.0002 nM,110 nM
"YXEGTFISDYSIAXDRXAQXDFVNWLLAQRG (N-methyl Tyr 1; Aib at 2,17,20; Lys(G5-C18 diacid) at 14; C-terminal OH) [Compound No. 63]",0.0002 nM,75.9 nM
"YXEGTFISDYSIXLDSXAQXDFVNWLLAQKG (N-methyl Tyr 1; Aib at 2,13,20; Lys(G5-C18 diacid) at 17; C-terminal OH) [Compound No. 77]",0.0003 nM,17 nM
"YXEGTFISDYSIAXDRXAQXDFVNWLLAQQG (N-methyl Tyr 1; Aib at 2,17,20; Lys(G5-C18 diacid) at 14; C-terminal OH) [Compound No. 82]",0.0003 nM,17.4 nM
[NMeY][Aib]EGTFISDYSI[Aib]LDR[Aib]AQ[Aib]K([2OEGgEgE-C20 diacid])FVNWLLAQKG-OH [Compound No. 65],0.001 nM,40.7 nM
[NMeY][Aib]EGTFISDYSIALDR[Aib]AQ[Aib]DFVNWLLAQK(2OEGgEgE‑C18 diacid)G-OH (N-terminus assumed; SMILES CC[C@H](C)[C@H](NC(=O)[C@H](CO)NC(=O)[C@H](Cc1ccc(O)cc1)NC(=O)[C@H](CC(=O)O)NC(=O)[C@H](CO)NC(=O)[C@@H](NC(=O)[C@H](Cc1ccccc1)NC(=O)[C@@H](NC(=O)CNC(=O)[C@H](CCC(=O)O)NC(=O)C(C)(C)NC(=O)[C@H](Cc1ccc(O)cc1)NC)[C@@H](C)O)[C@@H](C)CC)C(=O)N[C@@H](C)C(=O)N[C@@H](CC(C)C)C(=O)N[C@@H](CC(=O)O)C(=O)N[C@@H](CCCNC(=N)N)C(=O)NC(C)(C)C(=O)N[C@@H](C)C(=O)N[C@@H](CCC(N)=O)C(=O)NC(C)(C)C(=O)N[C@@H](CC(=O)O)C(=O)N[C@@H](Cc1ccccc1)C(=O)N[C@H](C(=O)N[C@@H](CC(N)=O)C(=O)N[C@@H](Cc1c[nH]c2ccccc12)C(=O)N[C@@H](CC(C)C)C(=O)N[C@@H](CC(C)C)C(=O)N[C@@H](C)C(=O)N[C@@H](CCC(N)=O)C(=O)N[C@@H](CCCCNC(=O)COCCOCCNC(=O)COCCOCCNC(=O)CC[C@H](NC(=O)CC[C@H](NC(=O)CCCCCCCCCCCCCCCCC(=O)O)C(=O)O)C(=O)O)C(=O)NCC(=O)O)C(C)C) [Compound No. 61],0.0007 nM,> 1000 nM
"YXEGTFISDYSIAXDRXAQXDFVNWLLAQRPSSG (N-methyl Tyr 1; Aib at 2,17,20; Lys(G5-C18 diacid) at 14; C-terminal OH) [Compound No. 70]",0.0002 nM,43.7 nM
[NMeY][Aib]EGTFISDYSI[Aib]LDR[Aib]AQ[Aib]K([2OEGgEgE-C18 diacid])FVNWLLAQSPG-OH [Compound No. 85],0.0004 nM,41.7 nM
"YXEGTFISDYSIAXDRXAQXDFVNWLLAQSPG (N-methyl Tyr 1; Aib at 2,17,20; Lys(G5-C18 diacid) at 14; C-terminal OH) [Compound No. 84]",0.0002 nM,58.9 nM
"YXEGTFISDYSIXLDRXAQXDFVNWLLAQSPG (N-methyl Tyr 1; Aib at 2,13,20; Lys(G5-C18 diacid) at 17; C-terminal OH) [Compound No. 88]",0.0004 nM,13.5 nM
[NMeY][Aib]EGTFISDYSI[Aib]LDR[Aib]K([2OEGgEgE-C18 diacid])Q[Aib]DFVNWLLAQSPG-OH [Compound No. 87],0.0004 nM,> 1000 nM
[NMeY][Aib]EGTFISDYSIALDR[Aib]K([2OEGgEgE-C20 diacid])Q[Aib]NFVNWLLAQSPSSGAPPPS-NH2 [Compound No. 68],0.0007 nM,> 1000 nM
[NMeY][Aib]EGTFISDYSIALDR[Aib]AQ[Aib]DFVNWLLAK(2OEGgEgE‑C18 diacid)RPSSGAPPPS-NH2 [Compound No. 58],0.0004 nM,> 1000 nM
[NMeY][Aib]EGTFISDYSIALDRIHQQNFVNWLLAQK-NH2 (not fully specified (residue 30)) [Compound No. 5],0.0007 nM,123 nM
